Test results published in the MegaScale stability set (Tsuboyama et al. 2023).

B1: EEHEE_rd4_0469 (parent)
chain: ITIHVNGVTYHFDNPEEAEKFAQKMAKTYQLKMEIHNGEFHME

Variants of: B1
Assay: folding stability dG (cDNA display proteolysis); higher = more stable
Settings: PBS, room temperature

Folding stability dG [kcal/mol] of substitutions, site by site:
F12: P -0.616, W 0.481, K -0.93, Y 0.526, L 0.299, T -0.211, N -0.578, I 0.352, M 0.391, Q -0.822, V 0.034, S -0.408
P15: I 1.27, M 1.5, N 0.994, G 1.04, V 1.21, L 1.35, F 1.39, H 1.13, K 1.17, S 1.1, D 0.883, Y 1.36, Q 1.03, W 1.53, T 1.14, R 1.34, A 1.14, E 0.979
D13: T 1.25, E 1.11, W 1.23, V 1.21, L 1.28, Q 1.11, H 1.2, P 1.17, F 1.15, G 1.11, M 1.16, A 1.2, N 1.13, Y 1.23, I 1.3, K 1.1, R 1.15, C 1.81, S 1.26
A18: C 1.56, F 1, K 0.431, Q 0.282, M 0.753, L 0.747, S 0.425, P -0.237, I 0.525, R 0.63, D -0.444, N -0.125, H 0.114, V 0.798, G 1.03, T 0.325, W 0.81, E 0.011, Y 0.556
Q23: G 0.566, C 2.52, T 1.19, S 1.05, R 1.35, D 0.989, A 1.24, H 0.988, E 1.14, Y 1.28, L 1.25, I 1.27, M 1.29, N 0.986, V 1.26, K 1.07, W 1.36, F 1.19
K20: Q 1.17, L 1.23, E 1.11, A 1.21, R 1.17, C 2.01, G 0.79, D 1.03, F 1.1, M 1.15, Y 1.09, W 1.02, P 0.383, T 1.19, N 1.02, S 1.15, H 1.15, V 1.17, I 1.18
N14: K 1.1, H 0.946, G 0.9, R 1.09, F 1.05, I 1.22, V 1.1, M 0.98, A 0.947, W 1.05, Q 1, S 1.07, Y 0.849, E 0.901, T 1.09, P 0.129, D 1.19, L 1.18
K24: I 1.41, D 1.09, F 1.99, L 1.48, N 0.976, R 1.31, E 1.39, H 1.51, T 1.1, A 1.11, V 1.29, M 1.41, W 2.29, Q 1.2, Y 2.27, G 0.646, S 0.939, P -0.407
T28: H 1.45, L 1.97, I 1.6, Q 1.51, W 1.95, G 0.636, K 1.69, S 0.87, F 1.67, P 0.094, E 2, Y 1.91, D 1.87, V 1.22, N 1.24, A 1.26, M 1.65, R 1.65
Y29: G 1.59, W 0.793, H 1.45, Q 1.05, N 1.29, T 1.05, C 2.3, M 0.899
